Assay results published in patent US20070218516A1 (UNITED STATES OF AMERICA AS REPRESENTED BY THE SERCRETARY …, published 2007).

Columns and labels:
[1] = target: T1, botulinum neurotoxin serotype A (BoNT/A) (Clostridium botulinum, UniProt P0DPI0 2-1296); assay: direct ELISA, […], antibody at 1.25 ug/ml
[2] = target: T2, botulinum neurotoxin serotype B (BoNT/B) (Clostridium botulinum, UniProt P10844 2-1291); assay: direct ELISA, […], antibody at 1.25 ug/ml
T2 sequence: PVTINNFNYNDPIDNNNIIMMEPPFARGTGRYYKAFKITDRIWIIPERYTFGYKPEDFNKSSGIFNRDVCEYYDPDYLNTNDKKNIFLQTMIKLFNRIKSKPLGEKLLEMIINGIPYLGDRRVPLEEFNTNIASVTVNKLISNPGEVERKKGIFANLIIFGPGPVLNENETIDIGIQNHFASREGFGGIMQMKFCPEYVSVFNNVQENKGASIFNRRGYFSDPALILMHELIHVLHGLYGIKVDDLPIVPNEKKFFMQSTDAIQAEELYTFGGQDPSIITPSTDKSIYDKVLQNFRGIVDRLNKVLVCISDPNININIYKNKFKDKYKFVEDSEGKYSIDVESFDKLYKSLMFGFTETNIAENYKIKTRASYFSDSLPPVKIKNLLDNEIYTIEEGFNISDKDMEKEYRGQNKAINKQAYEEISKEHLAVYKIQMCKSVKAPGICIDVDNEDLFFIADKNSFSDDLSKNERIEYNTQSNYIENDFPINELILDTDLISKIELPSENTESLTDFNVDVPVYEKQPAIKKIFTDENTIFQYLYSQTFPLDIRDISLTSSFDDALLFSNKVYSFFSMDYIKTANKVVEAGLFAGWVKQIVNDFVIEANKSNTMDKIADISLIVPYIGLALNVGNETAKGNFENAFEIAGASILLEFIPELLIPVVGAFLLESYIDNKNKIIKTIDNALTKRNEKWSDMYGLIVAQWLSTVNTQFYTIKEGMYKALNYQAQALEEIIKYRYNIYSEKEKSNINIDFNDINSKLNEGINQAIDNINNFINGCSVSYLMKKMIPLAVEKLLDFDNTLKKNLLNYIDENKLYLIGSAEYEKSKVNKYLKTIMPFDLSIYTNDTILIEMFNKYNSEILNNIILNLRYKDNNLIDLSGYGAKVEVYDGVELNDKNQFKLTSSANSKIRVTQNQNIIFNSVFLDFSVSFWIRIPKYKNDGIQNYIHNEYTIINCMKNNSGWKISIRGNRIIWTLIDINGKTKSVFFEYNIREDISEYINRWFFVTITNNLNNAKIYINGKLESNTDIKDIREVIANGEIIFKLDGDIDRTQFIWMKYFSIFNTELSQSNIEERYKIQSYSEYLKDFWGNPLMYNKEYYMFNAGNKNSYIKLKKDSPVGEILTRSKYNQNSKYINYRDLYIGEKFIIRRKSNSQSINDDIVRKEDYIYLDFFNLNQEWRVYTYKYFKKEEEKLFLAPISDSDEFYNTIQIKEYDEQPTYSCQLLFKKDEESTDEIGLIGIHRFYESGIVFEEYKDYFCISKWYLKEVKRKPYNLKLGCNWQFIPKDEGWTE

[3] = target: T1, botulinum neurotoxin serotype A (BoNT/A); assay: capture ELISA, antibody coated at 5.0 ug/ml
[4] = target: T2, botulinum neurotoxin serotype B (BoNT/B); assay: capture ELISA, antibody coated at 5.0 ug/ml
[5] = target: T1, botulinum neurotoxin serotype A (BoNT/A); assay: capture ELISA titration, antibody at 5.0 ug/ml
[6] = target: T2, botulinum neurotoxin serotype B (BoNT/B); assay: capture ELISA titration, antibody at 5.0 ug/ml

T1 sequence (P0DPI0 2-1296 limits assumed): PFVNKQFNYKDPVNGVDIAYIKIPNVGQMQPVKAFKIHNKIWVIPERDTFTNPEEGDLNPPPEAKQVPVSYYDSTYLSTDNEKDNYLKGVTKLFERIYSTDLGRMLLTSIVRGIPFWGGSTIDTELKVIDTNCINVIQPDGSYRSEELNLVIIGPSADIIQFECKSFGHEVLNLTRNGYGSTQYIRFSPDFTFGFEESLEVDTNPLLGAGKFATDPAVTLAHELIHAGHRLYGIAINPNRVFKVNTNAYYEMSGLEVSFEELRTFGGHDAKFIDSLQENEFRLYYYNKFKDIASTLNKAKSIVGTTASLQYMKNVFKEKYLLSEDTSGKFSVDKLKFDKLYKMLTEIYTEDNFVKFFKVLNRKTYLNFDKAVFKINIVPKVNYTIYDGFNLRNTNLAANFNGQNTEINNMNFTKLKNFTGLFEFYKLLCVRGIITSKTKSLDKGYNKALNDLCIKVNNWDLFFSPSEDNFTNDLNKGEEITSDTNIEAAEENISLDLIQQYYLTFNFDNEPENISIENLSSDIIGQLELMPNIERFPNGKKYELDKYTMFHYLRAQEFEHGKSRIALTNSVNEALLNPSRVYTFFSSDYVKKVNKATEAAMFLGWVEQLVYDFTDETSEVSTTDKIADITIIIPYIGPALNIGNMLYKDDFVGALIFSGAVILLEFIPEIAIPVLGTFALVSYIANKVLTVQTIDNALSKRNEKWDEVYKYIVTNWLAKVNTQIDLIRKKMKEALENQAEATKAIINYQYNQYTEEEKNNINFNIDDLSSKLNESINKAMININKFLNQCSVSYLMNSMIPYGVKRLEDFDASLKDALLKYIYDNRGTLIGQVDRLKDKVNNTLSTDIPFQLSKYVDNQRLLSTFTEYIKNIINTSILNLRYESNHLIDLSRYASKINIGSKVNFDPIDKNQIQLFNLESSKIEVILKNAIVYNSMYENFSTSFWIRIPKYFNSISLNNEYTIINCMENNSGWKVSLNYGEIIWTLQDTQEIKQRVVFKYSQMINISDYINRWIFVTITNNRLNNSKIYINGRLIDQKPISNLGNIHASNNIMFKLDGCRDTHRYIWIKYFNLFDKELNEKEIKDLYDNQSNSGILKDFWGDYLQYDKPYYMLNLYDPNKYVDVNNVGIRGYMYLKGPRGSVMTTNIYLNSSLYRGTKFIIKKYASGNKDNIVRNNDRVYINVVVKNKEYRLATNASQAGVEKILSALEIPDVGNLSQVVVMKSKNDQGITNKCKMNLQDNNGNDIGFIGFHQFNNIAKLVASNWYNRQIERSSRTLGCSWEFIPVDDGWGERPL

B1: rHu-BF5-A6 (antibody, V domains shown)
VH: EVQLQQSGAELVKPGASVKLSCTASGFNIKDTFMHWVKQRPEQGLEWIGRIDPANGNTEYDPKFQGKATITADTSSNTVNLQLSSLTSEDTAVYYCASGGELGFPYWGQGTLVTVSA
VL: DIQMTQSPASLSASVGETVTITCRASGNIHNYLAWYQQKQGKSPQLLVYNAKTLADGVPSRFSGSGSGTQYSLKINSLQPEDFGSYYCQHFWSTPWTFGGG
Binder B1 has a detection limit [1] of 9.4 ng, a detection limit [2] of 11.8 ng and a detection limit [3] of 0.29 ng. The detection limit [4] was 0.35 ng, the lowest amount detected [5] was 0.3 ng and the lowest amount detected [6] was 0.4 ng.

B2: rHu-BF5-B1 (antibody, V domains shown)
VH: B1 VH
VL: B1 VL
Work on B2 yielded a detection limit [1] of 9.4 ng, a detection limit [2] of 11.8 ng and a detection limit [3] of 0.29 ng. It also gave a detection limit [4] of 0.35 ng, a lowest amount detected [5] of 0.3 ng and a lowest amount detected [6] of 0.4 ng.
